We go through 13 proteins from patent US11491212.

This data set concerns the target Factor X (FX), P00742.

Factor X (FX), P00742, sequence (P00742 whole entry, looked up): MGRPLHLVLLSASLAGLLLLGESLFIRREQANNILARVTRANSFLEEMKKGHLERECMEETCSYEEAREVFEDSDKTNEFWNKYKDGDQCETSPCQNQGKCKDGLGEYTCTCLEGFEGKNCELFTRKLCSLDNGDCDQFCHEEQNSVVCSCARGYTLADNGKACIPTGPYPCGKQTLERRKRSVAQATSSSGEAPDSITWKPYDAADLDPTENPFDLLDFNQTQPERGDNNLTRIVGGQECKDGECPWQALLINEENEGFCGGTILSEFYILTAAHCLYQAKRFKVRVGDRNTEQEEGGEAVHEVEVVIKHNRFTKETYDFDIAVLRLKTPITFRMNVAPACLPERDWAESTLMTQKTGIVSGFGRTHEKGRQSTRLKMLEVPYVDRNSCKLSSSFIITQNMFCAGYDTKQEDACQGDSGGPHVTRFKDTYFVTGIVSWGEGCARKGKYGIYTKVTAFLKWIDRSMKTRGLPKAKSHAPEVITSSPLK

B1: FIXa-D203N/F205T/R338E (protein)
chain 1: not shown
chain 2: not shown
In the case of B1, the KM (as a rule, the substrate concentration at which the rate is half of its maximum) amounted to 0.0241 µM; the KM for FX activation by FIXa in the Xase complex (FVIIIa/PC-PS/Ca2+), fluorogenic Spectrafluor FXa assay came out at 0.0241 µM; the turnover number (kcat) (commonly the maximal rate divided by the concentration of active sites) turned out to be 2.5 s⁻¹.

B2: FIXa R318Y/R338E/R403E/E410N/T412A (protein)
chain 1: not shown
chain 2: not shown
With B2, the kcat (Catalytic activity of FIXa variants) turned out to be 8.4 s⁻¹.

B3: FIXa D104N/K106S/Y155F/K228N/K247N/N249S (protein)
chain 1: not shown
chain 2: not shown
For the protein B3, the Michaelis constant (KM) worked out at 0.0753 µM and the kcat (Catalytic activity of FIXa variants) came to 4.7 s⁻¹.

B4: FIXa R318Y/R338E/R403E/E410N/T412V (protein)
chain 1: not shown
chain 2: not shown
Take B4: the kcat (Catalytic activity of FIXa variants) is 7.9 s⁻¹.

B5: FIXa R318Y/R338E/E410N/T412V (protein)
chain 1: not shown
chain 2: not shown
B5: the kcat (Catalytic activity of FIXa variants) was 6.3 s⁻¹.

B6: FIXa-Y155F/R318Y/R338E/R403E (protein)
chain 1: not shown
chain 2: not shown
B6: the KM stood at 0.0671 µM and the kcat came out at 5.1 s⁻¹.

B7: FIXa K228N/K247N/N249S/R318Y/R338E/R403E/E410N (protein)
chain 1: not shown
chain 2: not shown
Turning to B7, the kcat (Catalytic activity of FIXa variants) was 6.1 s⁻¹.

B8: FIXa-R338E/R403E/E410N (protein)
chain 1: not shown
chain 2: not shown
B8: the KM is 0.0367 µM; the KM for FX activation by FIXa in the Xase complex (FVIIIa/PC-PS/Ca2+), fluorogenic Spectrafluor FXa assay is 0.0455 µM; the kcat was found to be 5.8 s⁻¹.

B9: FIXa-Y155F/R338E/R403E/E410N (protein)
chain 1: not shown
chain 2: not shown
Regarding B9, the kcat came to 5.9 s⁻¹.

B10: FIXa-D203N/F205T/K228N (protein)
chain 1: not shown
chain 2: not shown
In the case of B10, the KM amounted to 0.0399 µM; the KM for FX activation by FIXa in the Xase complex (FVIIIa/PC-PS/Ca2+), fluorogenic Spectrafluor FXa assay worked out at 0.0399 µM; the kcat was 0.6 s⁻¹.

B11: FIXa R318Y/R338E/T412A (protein)
chain 1: not shown
chain 2: not shown
As to B11, the kcat (Catalytic activity of FIXa variants) is 7 s⁻¹.

B12: FIXa Y155F/K228N/K247N/N249S (protein)
chain 1: not shown
chain 2: not shown
Take B12: the kcat (Catalytic activity of FIXa variants) turned out to be 4.3 s⁻¹.

B13: FIXa-D203N/F205T/E410N (protein)
chain 1: not shown
chain 2: not shown
Turning to B13, the KM came out at 0.0455 µM; the KM for FX activation by FIXa in the Xase complex (FVIIIa/PC-PS/Ca2+), fluorogenic Spectrafluor FXa assay was found to be 0.0455 µM; the catalytic constant (kcat) was 1.7 s⁻¹.
